{
  "source": "paper PMC3376167",
  "about": "(The Journal of Physical Chemistry. B, 2012)",
  "proteins": {"B1": {"name": "HIF-1α PAS-B domain single mutant (R245E), construct 947 (domain or fragment)", "chain": "not shown"}},
  "molecular_target": "the molecule itself",
  "assay": "NMR 15N R2 relaxation",
  "data": [
    {"protein": "B1", "values": [
      {"measurement": "binding result", "result": "binds"}
    ]}
  ]
}
